The target in the assay is PTH-1 receptor (human) (UniProt Q03431). As to the kind of experiment: cell-based or functional assay.
Sequence of UniProt Q03431 (Q03431 27-593): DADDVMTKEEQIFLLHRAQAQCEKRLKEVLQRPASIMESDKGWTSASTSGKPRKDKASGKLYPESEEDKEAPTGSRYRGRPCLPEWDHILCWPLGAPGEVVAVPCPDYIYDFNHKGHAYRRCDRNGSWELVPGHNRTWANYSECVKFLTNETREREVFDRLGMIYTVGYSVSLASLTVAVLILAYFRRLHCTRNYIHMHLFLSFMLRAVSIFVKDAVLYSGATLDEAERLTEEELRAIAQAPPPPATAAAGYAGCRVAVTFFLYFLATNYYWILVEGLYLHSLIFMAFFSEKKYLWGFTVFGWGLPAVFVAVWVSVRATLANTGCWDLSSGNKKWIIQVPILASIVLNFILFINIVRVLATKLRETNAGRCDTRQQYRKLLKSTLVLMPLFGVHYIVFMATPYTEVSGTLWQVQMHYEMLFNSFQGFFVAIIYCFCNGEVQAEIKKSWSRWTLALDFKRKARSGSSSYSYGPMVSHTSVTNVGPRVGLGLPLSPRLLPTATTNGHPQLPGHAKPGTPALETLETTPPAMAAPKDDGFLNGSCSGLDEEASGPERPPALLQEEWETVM

“human PTH 1-34 (from UniProt P01270 32-65) (peptide)”: the intracellular cAMP levels in hOB-01-C1-PS-09 cells preincubated 48 hr at 39 C, treated 10 min at 37 C fell in the range of 5 to 6 fold.

These data come from patent US20040115195A1.
